This note sets out measurements from patent publication US20050142137A1 (CURAGEN, published 2005).

Experiment [1] deals with T1, recombinant human SLPI (Secretory leukocyte protease inhibitor), R&D Systems Cat#260-PI (human, UniProt P03973 25-131, biotinylated in the streptavidin-plate ELISAs and on SRBCs).
T1 construct: Bought protein; also called biotinylated SLPI; B-Cur12
The experiment is described as follows: limiting antigen ELISA, biotinylated SLPI coated at 800 ng/ml. As to the method: (§1) The limiting antigen analysis is a method that affinity ranks the antigen-specific antibodies in B cell culture supernatants. […] Each plate was washed 5 times with dH₂O, before 46 μl/well of 1% milk in PBS with 0.05% sodium azide was added, followed by 4 μl/well of B cell supernatant. After 22 hours at RT on a shaker, the plates were again washed 5 times with dH₂O. Goat anti-Human (Fc)-HRP at 1 μg/ml, 50 μl/well was added. After 1 hour at RT, the plates were again washed 5 times with dH₂O and 50 μl/well of TMB substrate was added. The reaction was stopped by the addition of 50 μl of 1M phosphoric acid to each well and the plates were read at wavelength 450 nm. 42C1, 43H7, 35F1 and 9G12 were chosen for further evaluation and cloning.

Experiment [2] deals with T1, recombinant human SLPI (Secretory …). In words: BIAcore 2000, 25 C, antibody captured on goat anti-human surface, SLPI injected. As to the method:
BiaCore® analysis was used to determine binding affinity of anti-SLPI antibody to SLPI antigen. The analysis was performed at 25° C. using a BiaCore® 2000 biosensor equipped with a research-grade CM5 sensor chip. A high-density goat α human antibody surface over a CM5 BiaCore® chip was prepared using routine amine coupling. Antibody supernatents were diluted to ˜5 μg/mL in HBS-P running buffer containing 100 μg/mL BSA and 10 mg/mL carboxymethyldextran. The antibodies were then captured individually on a separate surface using a 2 minute contact time, and a 5 minute wash for stabilization of antibody baseline.
SLPI antigen was injected over each surface for 75 seconds, followed by a 3-minute dissociation. Double-referenced binding data were obtained by subtracting the signal from a control flow cell and subtracting the baseline drift of a buffer inject just prior to the SLPI injection. SLPI binding data for each mAb were normalized for the amount of mAb captured on each surface. The normalized, drift-corrected responses were also measured.

The target is the same in experiment [3]. The experiment is described as follows: limiting antigen ELISA, biotinylated SLPI coated at 400 ng/ml. As to the method: as §1
For experiment [4] the target is unchanged. In words: limiting antigen ELISA, biotinylated SLPI coated at 200 ng/ml. As to the method:
as §1

Experiment [5] shares this target. In words: ELISA, B cell supernatant on biotinylated SLPI, rescreen.
Experiment [6] shares this target. The experiment is described as follows: ELISA, B cell supernatant on biotinylated SLPI, primary screen. As to the method: Anti-SLPI antibody titers were determined by indirect ELISA. Briefly, biotinylated SLPI (0.5 μg/mL) was coated onto Sigma Streptavidin Clear Polystyrene 96 well ELISA plates for 30 minutes at room temperature (RT). The plates were then washed 4× by hand, then pat dried on paper towels. XenoMouse® animal sera from SLPI immunized, or naïve XenoMouse® animals, were titrated out to 6 wells, the last well left blank, in 1% no fat skim milk/PBS at 1:2 dilutions in duplicate from a 1:500 initial dilution. 50 μl was used for each well. The plates were incubated for 1 hour then washed four times. 50 μl of a goat anti-human IgG Fc-specific HRP-conjugated antibody (0.4 μg/mL) was added to each well and incubated for 1 hour at RT. The plates were washed five times with distilled water (dH₂O). The plates were developed with the addition of TMB for 30 minutes and the ELISA was stopped by the addition of 1 M phosphoric acid. The specific titers of individual XenoMouse® animals were determined from the optical density at 450 nm, Table 2. The titers represent the reciprocal dilution of the serum to either SLPI or streptavidin and therefore the higher the number, the greater the humoral immune response. Lymph nodes were harvested for XenoMax® antibody generation from immunized XenoMouse® animals with specific titers to SLPI versus streptavidin as shown in Table 4.
B cells from the harvested animals were cultured and those secreting SLPI-specific antibodies were isolated as described previously (Babcook et al., 1996 Proc. Natl. Acad. Sci. USA, 93:7843-7848). ELISA, performed as described above, was used to identify primary SLPI-specific wells from fifty plates cultured at 500 or 150 cells/well.

Experiment [7] has the same target. The experiment is described as follows: ELISA, SLPI (60 ng/ml) + supernatant on plate-bound chymotrypsin. As to the method: Antibodies were screened for ability to inhibit SLPI activity. The assay involves assessing SLPI binding to chymotrypsin and resultant inhibition of chymotrypsin enzyme activity in the presence or absence of antibody. Biotinylated bovine chymotrypsin (5 μg/ml) was incubated with streptavidin coated plates for 30 minutes at RT. Each plate was washed 5 times with dH₂O prior to addition of an anti-SLPI antibody mixture (30 μl of SLPI reconstituted in 100 mM Tris, 10 mM CaCl₂ and 0.1% HSA pH 7.5 mixed with 20 μl of monoclonal antibody supernatant being tested; final concentration SLPI 60 ng/ml; incubated for 1 hour at RT) and plates were incubated for 1 hour. Plates were washed 5 times with dH₂O then incubated with 50 μl of a polyclonal Goat anti-SLPI (purchased from R&D) at 1 μg/ml/well for 1 hour. After washing, 50 μl of a rabbit anti-goat HRP-conjugated antibody/well was added and incubated for 1 hour. After washing, 50 μl of TMB substrate/well was added.. The reaction was stopped by adding of 50 μl of 1M phosphoric acid/well. Plates were read at wavelength 450 nm.

T1 sequence (P03973 25-131): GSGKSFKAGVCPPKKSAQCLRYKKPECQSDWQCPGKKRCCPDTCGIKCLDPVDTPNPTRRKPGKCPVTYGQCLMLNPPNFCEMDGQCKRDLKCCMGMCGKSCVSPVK

B1: 35F1 (antibody, human IgG2, V domains shown)
VH: QVQLQESGPGLVKPSQTLSLTCTVSGGSIKSGDYYWSWVRQLPGKGLEWIGYIYYSGSTYYNPSLKSRVTISIDTSKNQFSLKLSSVTAADTAVYYCAREGSYYDSGGFDYWGQGTLVTVSS
VL: not shown
notes: Fully human, XenoMouse XMG2; also called #50; Cur12.1 PL35 F1
On to B1, for which the figures for the OD in experiment [1], in experiment [3] and in experiment [4] were 0.37 OD450, 0.3 OD450 and 0.24 OD450, respectively. The Kd in experiment [2] stood at 0.14 nM. Besides, the “2* OD” value in experiment [5] was found to be 0.41 OD450. In experiment [6], the “1* OD” value came to 0.425 OD450. The “% Max” value in experiment [7] came out at 47%. The O.D. in experiment [7] was 0.35 OD450.

B2: 42C1 (antibody, human IgG2, V domains shown)
VH: QVQLQESGPGLVKPSQTLSLTCTVSGVSISSGGYYWSWIRQHPGKGLEWIGYIYYSGSTYYNPSLKSRVTISVDTSKNQFSLKLSSVTAADTAVFYCAREGEYYDEGGFDYWGQGTLVTVSS
VL: not shown
notes: Fully human, XenoMouse XMG2; also called #24; Cur12.1 PL42 C1
B2: the results for the OD in experiment [1], in experiment [3] and in experiment [4] were 3.85 OD450, 3.58 OD450 and 3.69 OD450, respectively. Moreover, in experiment [2], the Kd came out at 0.116 nM. In addition, the “2* OD” value in experiment [5] is 2.25 OD450. Moreover, in experiment [6], the “1* OD” value worked out at 3.23 OD450. For the same molecule, the “% Max” value in experiment [7] came out at 103%. For the same molecule, the O.D. in experiment [7] was determined as 0.762 OD450.

B3: 43H7 (antibody, human IgG2, V domains shown)
VH: QVQLVESGGGVVQPGRSLRLSCAASGFTFSTYGMHWVRQAPGKGLEWVTFIWYDGRNKYYADSVKGRFTVSRDNSKNTLYLQMNSLRAEDTAVYYCARGDDYGDYHPHYYYYGLDVWGQGTTVTVSS
VL: DIVMTQTPLSLSVTPGQPASISCKSSQSLLDSDGKTYLYWYLQKPGQPPQLLIYEVSNRFSGVPDRFSGSGSGTDFTLKISRVEAEDVAYYYCMQSIQLPWTFGQGTKVEIK
notes: Fully human, XenoMouse XMG2; also called #11; Cur12.1 PL43 H7
In the case of B3, the OD in experiment [1] came out at 4.1 OD450; in experiment [3], 4.02 OD450; in experiment [4] it was 3.52 OD450. Further, the Kd in experiment [2] worked out at 0.104 nM. Moreover, in experiment [5], the “2* OD” value was 2.28 OD450. Besides, the “1* OD” value in experiment [6] amounted to 3.37 OD450. In addition, in experiment [7], the “% Max” value was 90%. Besides, the O.D. in experiment [7] stood at 0.666 OD450.

B4: 9G12 (antibody, human IgG2, V domains shown)
VH: QVQLVESGGGVVQPGRSLRLSCAASGFTFSGYGMHWVRQAPGKGLEWVAFIWYNGNDNYYTDSVKGRFTISRDNSKNTLYLQMNSLRAEDTAVYYCARGDDYGDYHPHYYYYGMDVWGQGTTVTVSS
VL: DIVMTQTPLSLSVTPGQPASISCKSSQSLLDSDGKTYLYWYLQKPGQPPQLLIYEVSNRFSGVPDRFSGSGSGTDFTLKISRVEAEDIGVYYCLQSIQLPWTFGQGTKVEIK
notes: Fully human, XenoMouse XMG2; also called #36; Cur12.1 PL09 G12
On to B4, for which the OD in experiment [1] turned out to be 2.25 OD450; in experiment [3] it was 2.19 OD450; in experiment [4], 1.36 OD450. Also, the Kd in experiment [2] came to 0.053 nM. Also, the “2* OD” value in experiment [5] amounted to 1.97 OD450. Moreover, in experiment [6], the “1* OD” value worked out at 2 OD450. For the same molecule, the “% Max” value in experiment [7] is 61%. Further, the O.D. in experiment [7] was found to be 0.452 OD450.
